Columns and labels:
[1] = biological target: recombinant homotrimeric HA, A/Solomon Islands/3/06 H1N1 (Influenza A virus A/Solomon Islands/3/06 (H1N1)); assay: trimeric HA microarray, transfection set 5
[2] = biological target: recombinant homotrimeric HA, A/Wisconsin/67/05 H3N2 (Influenza A virus A/Wisconsin/67/05 (H3N2)); assay: trimeric HA microarray, transfection set 5
[3] = biological target: recombinant homotrimeric HA, A/swine/Ontario/01911-2/99 H4N6 (Influenza A virus A/swine/Ontario/01911-2/99 (H4N6)); assay: trimeric HA microarray, transfection set 5
[4] = biological target: recombinant homotrimeric HA, A/Japan/305/57 H2N2 (Influenza A virus A/Japan/305/57 (H2N2)); assay: trimeric HA microarray, transfection set 5
[5] = biological target: recombinant homotrimeric HA, A/South Carolina/1/18 H1N1 (Influenza A virus A/South Carolina/1/18 (H1N1)); assay: trimeric HA microarray, transfection set 5
[6] = biological target: recombinant homotrimeric HA, A/California/4/09 H1N1 (Influenza A virus A/California/4/09 (H1N1)); assay: trimeric HA microarray, transfection set 5
[7] = biological target: recombinant homotrimeric HA, A/Vietnam/1203/04 H5N1 (Influenza A virus A/Vietnam/1203/04 (H5N1)); assay: trimeric HA microarray, transfection set 5
[8] = biological target: recombinant homotrimeric HA, A/Indonesia/5/05 H5N1 (Influenza A virus A/Indonesia/5/05 (H5N1)); assay: trimeric HA microarray, transfection set 5
[9] = biological target: recombinant homotrimeric HA, A/Hong Kong/1073/99 H9N2 (Influenza A virus A/Hong Kong/1073/99 (H9N2)); assay: trimeric HA microarray, transfection set 2
[10] = biological target: recombinant homotrimeric HA, A/Solomon Islands/3/06 H1N1 (Influenza A virus A/Solomon Islands/3/06 (H1N1)); assay: trimeric HA microarray, transfection set 2
[11] = biological target: recombinant homotrimeric HA, A/Wisconsin/67/05 H3N2 (Influenza A virus A/Wisconsin/67/05 (H3N2)); assay: trimeric HA microarray, transfection set 2
[12] = biological target: recombinant homotrimeric HA, A/swine/Ontario/01911-2/99 H4N6 (Influenza A virus A/swine/Ontario/01911-2/99 (H4N6)); assay: trimeric HA microarray, transfection set 2
[13] = biological target: recombinant homotrimeric HA, A/Anhui/1/05 H5N1 (Influenza A virus A/Anhui/1/05 (H5N1)); assay: trimeric HA microarray, transfection set 2
[14] = biological target: recombinant homotrimeric HA, A/Egypt/3300-NAMRU3/08 H5N1 (Influenza A virus A/Egypt/3300-NAMRU3/08 (H5N1)); assay: trimeric HA microarray, transfection set 2
[15] = biological target: recombinant homotrimeric HA, A/common magpie/Hong Kong/5052/07 H5N1 (Influenza A virus A/common magpie/Hong Kong/5052/07 (H5N1)); assay: trimeric HA microarray, transfection set 2
[16] = biological target: recombinant homotrimeric HA, A/Japan/305/57 H2N2 (Influenza A virus A/Japan/305/57 (H2N2)); assay: trimeric HA microarray, transfection set 2
[17] = biological target: recombinant homotrimeric HA, A/duck/Yangzhou/02/05 H8N4 (Influenza A virus A/duck/Yangzhou/02/2005 (H8N4)); assay: trimeric HA microarray, transfection set 2
[18] = biological target: recombinant homotrimeric HA, A/South Carolina/1/18 H1N1 (Influenza A virus A/South Carolina/1/18 (H1N1)); assay: trimeric HA microarray, transfection set 2
[19] = biological target: recombinant homotrimeric HA, A/northern shoveler/California/HKWF115/07 (Influenza A virus A/northern shoveler/California/HKWF115/2007 (H6N1)); assay: trimeric HA microarray, transfection set 2
[20] = biological target: recombinant homotrimeric HA, A/Netherlands/219/03 H7N7 (Influenza A virus A/Netherlands/219/03 (H7N7)); assay: trimeric HA microarray, transfection set 2
[21] = biological target: recombinant homotrimeric HA, A/California/4/09 H1N1 (Influenza A virus A/California/4/09 (H1N1)); assay: trimeric HA microarray, transfection set 2
[22] = biological target: recombinant homotrimeric HA, A/Vietnam/1203/04 H5N1 (Influenza A virus A/Vietnam/1203/04 (H5N1)); assay: trimeric HA microarray, transfection set 2
[23] = biological target: recombinant homotrimeric HA, A/chicken/Vietnam/NCVD-016/08 H5N1 (Influenza A virus A/chicken/Vietnam/NCVD-016/08 (H5N1)); assay: trimeric HA microarray, transfection set 2
[24] = biological target: recombinant homotrimeric HA, A/Hong Kong/2108/03 H9N2 (Influenza A virus A/Hong Kong/2108/03 (H9N2)); assay: trimeric HA microarray, transfection set 2
[25] = biological target: recombinant homotrimeric HA, A/Indonesia/5/05 H5N1 (Influenza A virus A/Indonesia/5/05 (H5N1)); assay: trimeric HA microarray, transfection set 2

Substance: TCN-202 (2N9) (antibody)
- Trimeric HA Binding RLU [1]: 525 RLU
- Trimeric HA Binding RLU [2]: 581 RLU
- Trimeric HA Binding RLU [3]: 2690 RLU
- Trimeric HA Binding RLU [4]: 1880 RLU
- Trimeric HA Binding RLU [5]: 5330 RLU
- Trimeric HA Binding RLU [6]: 733 RLU
- Trimeric HA Binding RLU [7]: 30000 RLU
- Trimeric HA Binding RLU [8]: 1970 RLU
- Trimeric HA Binding RLU [9]: 33 RLU
- Trimeric HA Binding RLU [10]: 16 RLU
- Trimeric HA Binding RLU [11]: 46 RLU
- Trimeric HA Binding RLU [12]: 15 RLU
- Trimeric HA Binding RLU [13]: 9 RLU
- Trimeric HA Binding RLU [14]: 18 RLU
- Trimeric HA Binding RLU [15]: 11 RLU
- Trimeric HA Binding RLU [16]: 32 RLU
- Trimeric HA Binding RLU [17]: 19 RLU
- Trimeric HA Binding RLU [18]: 195 RLU
- Trimeric HA Binding RLU [19]: 30 RLU
- Trimeric HA Binding RLU [20]: 26 RLU
- Trimeric HA Binding RLU [21]: 52 RLU
- Trimeric HA Binding RLU [22]: 121 RLU
- Trimeric HA Binding RLU [23]: 22 RLU
- Trimeric HA Binding RLU [24]: 7 RLU
- Trimeric HA Binding RLU [25]: 8 RLU
